# Assay results published in a protein production outcome set (Wang et al. 2014).
# Assay: label from the status in PepcDB records
row,Sequence,protein production
1,EVPDLPEEPSETAEEVVTVALRCPNGRVLRRRFFKSWNSQVLLDWMMKVGYHKSLYRLSTSFPRRALEVEGGSSLEDIGITVDTVLNVEEKEQSSQ,not failed
2,MHLDPDACYHAVQSRDRRFDGWFFVGVTSTGVYCRPICAVRTPLQKNCRFFASAAAAEKAGFRPCLRCRPELAPGHSLAEMSSSLARAAARMIDEGFLQQHDLAALAAAVGVTDRHLRRIFRAEFDVSPIEYAQTQRLLLAKRLLTDTAMPVGDVAYAAGFGSVRRLNSGFAEHYGFAPTRLRTRAAPVSRGDDGATLMLGYRPPFAWHALLDFLRARAVDGVEVVDAHSYARTIALDYAGRRHAGWLRARDVPQRHAIALTLSASLVQAMPPVLARVRRLFDLDCRPDLVDTHLGTLAAGTPGLRVPGAVDGFEIAVRAIAGQVVSLARARRILARLAAAYGTPLAQPRAGLPTAFPSATALASVDPQALSGETGLQASRAAAMVEIARAIDAGRLRLEPLVPLAPTLAALQALSGIGEWTAQYIAMRALGWPNAFPLGDYVLRKRLADHDGTLPTRHAMATRAEDWAPWRAYAAMHLWHRDDAQAPTP,failed
3,GGRAVARTLIQDVTERVRSRKKLEHYREYTDRLLDAIDDLFLVFDEEAKLTRWNDRVVEVTGYADEALGGMEALGFVPEEERERVASQIADGFMTGHAKMDIPLRRADGTTVPYEIAGNLVDRP,failed
4,MSKDSESNLAQRQSQPKAHADLRINSHWIIPIENTTDHNLVSNILIDHCLLIKDGIILAIEPQSSCQIPATETLDLGQQVLMPGWVNAHGHAAMSLFRGLADDLPLMTWLQEHVWPAEAQHVDEHFVKQGTELAIAEMIQSGTTTFADMYFYPQQSGEAALAAGIRAVCFAPVLDFPTNYAQNADEYIRKAIECNDRFNNHPMNEQGLVQIGFGPHAPYTVSDEPLKEITMLSDQLDMPVQIHLHETDFEVSESLETFNKRPTQRLADIGFLNERVSCVHMTQVDDGDIKILQKTGASIIHCPESNLKLASGFCPIAKLSAANIPLAIGTDGAASNNDLDMFSETKTAALLAKGVSQDASAIPAIEALTMATLGGARALGIDDITGSLKPGKAADIQAIDLNTLSSQPVFDPVSHMVYCTKSTQVSHVWVNGRCLLKNGELTTLNEETLINHAKAWASAIRTPIK,not failed
5,MDKASRFDRMVKEKKNDELGLFEKYEETLAEIRKRIIKYKAKTVVDMGCGTGNLCGELSKEIEALGIDKSLEMLEGAKRKYKHIKFKIGSFSDKPFIGKWAGVVVTTYAFHGLNSEEKKEAIKNMIGYLKDDGRIIIGDYMFKNKAEKEECRNKLLSKKRQDLWEVIDGRYYTDLEELKDYVKSLGFKIISEHIVNFTWIVEIYK,failed
6,MKKKKVIASIVAVCFSLALLSTWVMIFGCMKRGEQELHANTSVEIPDMSSIPGCVQNGGQLMYRGNIYKYDPANINILFMGIDARGEDESIGQADMLALVVINTEKDTVKCICINRDSIGPVAIYDISGKAATTKNVQIALAYSYGKSQSEGRGLEMNTVSKLLHGIPIHGSVSVDIDGIGGINELAGGITLTALEDVPKAGIVKGEEVTLNDEQAMYYVTERDSASTDIGTNENRMSRQKQYISAWCDAVQQQIKKNPFKIFKMYDSVQGYVDTDISRNSMLYLAKVLKRVQFGEGDIYTVSGDYERENYYDKYLIDEDKLTEMMIETFYRKTE,failed
7,MAQFPTPFGGSLDIWAITVEERAKHDQQFHSLKPISGFITGDQARNFFFQSGLPQPVLAQIWALADMNNDGRMDQVEFSIAMKLIKLKLQGYQLPSALPPVMKQQPVAISSAPPFGMGGIASMPPLTAVAPVPMGSIPVVGMSPTLVSSVPTAAVPPLANGAPPVIQPLPAFAHPAATLPK,failed
8,MKKAVFSTLVIGLLSFQAHADYVAQPQSIAAQAARYSVMSIPELTQAAKSGQAGAQFYLGAHYQHGKNIPKDDKQAFTWFKAAADQGLSPAQLNVGRMYADGVGVAKNEAMARKYFEKAASNGDNRASYNLAMMEEQKKNYQGAYQWYELSTRDGMLDNKVINMSQSKKTALAANLTQDQIRQAVDRADKWIQAQ,failed
9,MLSINPNEQTEKDNYKLLTGSIIPRPVAFVTSVTKEGVLNGAPYSYFNIVAANPPLISVSVQRKAGERKDTSRNAIEKGEFVVHISDESYVAAINETAANLPPNESEIELAKLTPIESEVISVPGVKEANIRMECVLERAIPLGGTEDSPACDLLIGRVVRFHVAEHLYEKGRIHAEGLKPISRLAGHNYAKLGEQFELVRPI,not failed
10,MQMKKDFGYIRVGVASCELKVANPNYNVKSIISIMKKAYRRHHIKVLVFPELCVTGYTCGDLFNQNLLIKRAENELNNLLVSTSNINMITAVGMPVKADNQLFNCAVIINNGNILGVVPKTFIPTYNEFYEKRNFAGAISRISDEIILCGKKVPFGENLLFKDIYSELCIGIDICEDLWVNIPPSSYHTLNGANLILNLSASDEIVAKSDYRRDLVRLQSAKCITSYAYASSGQTESTSDLVFSGHSIIADNGSILKDIKFEEASYVKYADVDIEKLISDRIKFNTYMGRIEDKEYRTINFHLGYNENMHLERYVEASPFVPSNKSKRNIRCREILDLQASGLYQRLNKTGINKAVVGISGGLDSTLALLVIVEAFKKLKAPMKNIIGITMPGFGTTRRTYNNAVELMKKLGITIKEISIKKACIQHFNDIGQDLNTHDTIYENSQARERTQILMDIANKEGAIVVGTGDLSELALGWCTYNGDQMSMYGVNSSIPKTLVKYLIMWYAEASKDNDIRNILLDIYNTPVSPELLPPDKEGNIKQKTEDLIGSYELNDFFLYNMLRSGYEPLKILYLANIAFKDKYSEDVIHSALKNFYKRFFTQQFKRNCMPDGVKIGSVSLSPRGDLRMPSDASYGLWMDEL,failed
11,MGRDASSYFHLVFFLALTLLAGCSTTGSAPETREAGAGPEELMAAVRANEDRAVLELLSMGVRPDAQARAEQTPLMVAATNGNRRIVRLLLAAGAEVNARSADGNTAVIQAAENGHLAVVRALLAAGANVNVSQGGESLLMKVVASGDLLTAEMLLAAGADVHYRRADGTTALDLARASNNQDLEMLLVQAGAAR,failed
12,MPQPRRSTGSKLTYRPVGYVNAMSEQDEVPSEDRRKYEFRKVIEELKDYEGSGTQLVTIYIPPDKQISDVVAHVTQEHSEASNIKSKQTRTNVQDALTSIKDRLRYYDTFPPDNGMVVFSGAVDSGGGRTDMVTEVLESPPQPIESFRYHCDSAFLTEPLAEMLGDKGLYGLIVLDRRESNVGWLKGKRVQPVKSAESLVPGKQRKGGQSAQRFARLRLEAIDNFYQEVAGMADDLFVPKRHEIDGILVGGPSPTKDEFLDGDYLHHELQDKVLGKFDVSYTDESGLSDLVDAGQAALAEADLMDDKSDMEEFFEELNGGKLATYGFEQTRRNLIMGSVDRLLVSEDLREDVVIYECPNDHEEYETIDRRNTSPEHTCSDCGEEATEVDREDAIDHLMSIADQRGTETHFISTDFEKGEQLLTAFGGYAGILRYSTGV,failed
13,MNQKDVKLTVFSSDEKSFMVTATLVEKAGHAFLINSKFTQSDSKEIVEYLKKNNLSLDKIFIIHGDPDYYFGLESIKAVYPEAIAYATESTVEHIVHSVLGKLKVWKDALGENAPSNVVLPQVFKEKAIDFQGLTFELVGLEHYRTSLFNKELKVLIGGIDVFNEIHVFLADTSSKAAMEAWIENLKVLQALHADIIVPSHGSIEKSLNNQALTATMDYLRTAVQASEESGTSKDFVAKLEAAYPDYANKGVLELSAKVVTKELEHHHHHH,failed
14,MEFPDLTVEIKGPDVVGVNKLAEYEVHVKNLGGIGVPSTKVRVYINGTLYKNWTVSLGPKEEKVLTFNWTPTQEGMYRINATVDEENTVVELNENNNVATFLEHHHHHH,not failed
15,MEHSSMPLWLSSFEEEIDTYIFISSRDNKLYLGILRTYDQHGNVFLTHCVEKIIVPEKNYFSDVYVGNLIIRGDNIAYFGSVDEEKYCKMFDYTIKNDNDEEHNNMDMIKNKKEYSSSENIILVYKPINHILKFIPENNADSSIFEN,failed
16,MGHHHHHHSHMSEYLAAADYLPHSAPMVLVDEVIHVDDEHAHCRVAVSREGILAPFLNAQGHLPAWFGIEIIAQTIGVWSGWHGRQSLGLQEKPRPGMLLGGRGYHCQQAIFPAGSLLDVTVMLVMRDEKIGSFEGEIAIDGEKYASGRLNTYQPDDRELNILLEQGKPL,failed
17,MANKKGRRRSFGSCRQLASGRWQVRYRDPQTGLLRPAEKTYETKTDAQVALTHIEADITRGQWADPDAGDVNFADYATAWLRDRKLADRTRERNESVMRLHVVPVFGAGSIADVTTARVRSWRGKLLAAGVGEPTVVKAYQLLRALMNTAVDDELIRRNPCRIKGADSYDVPERPVLSVAEVFGVAYAIAPRYRLLVLLAAFTTLRFGELAALRRKDIDLNGRLVVVRRAQAELQNGRLFDKAPKSAAGLRTVSFPAELVDEISHHLKHYAADGQEGHLFVGPQGGQLRRSNFRDDWIKARKAAGVSPKLHFHDLRHTGNTLASTAGASTRELMTRMGHSSSRAALIYQHMTSDRDRTIADRLGAMIRNGEGDLTAAGD,failed
18,GPLGSAMRELLLSDEYAEQKRAVNRFMLLLSTLYSLDAQAFAEATESLHGRTRVYFAADEQTLLKNGNQTKPKHVPGTPYWVITNTNTGRKCSMIEHIMQSMQFPAELIEKVCGTI,not failed
19,MAYGTYRGLFAPEVAGPLAKLLVLLLVGYGLYQNRHLKSLYLVLLGLLLNALVIFANGGHMPVSPTALHRAGIGEFADLLRDKGDAVHALLDEKTRLPFLGDVIPLPPLRKVVSPGDLFILLGIVGVVVEGALKGGVRLRRRALALRLLLYLAFVLALLALRG,failed
20,APEERDLTQEQTEKLLQFQDLTGIESMDQCRHTLEQHNWNIEAAVQDRLNEQEG,not failed
21,MPKVSVVIPAYNAMPYLPETLESVLRQTYHDFEVVVVNDGSSDNTEEWVSQILDPRLKLISQANQGLAGARNTGIVNASGEYIAFLDADDIWEPTKLAKQVSVLDENPTVGLVYTWVAYIDEQGKSTGKIFKNQVEGYVWPQLTEHNIVECGSVALVRRVCFEKMGLFDRNLGSYVEDWDMWLRIATSYDFKVVKEALVYYRQRSNSASKNWEAMAHSFAIVIEKAFATASQDLQVLKNKSYGFTYLCLAWKPLQSFQKDYQKSREFCQQAVAYYPSLRFSQEYIRLSIAINLMRWFGADGYSKLLPLFHTMRRVKLALQK,failed
22,MKVNVSCSSVQTTIDILEENQGEDESILTLGQLRDRIATDNDVDVETMKLLHRGKFLQGADDVSLSTLNFKENDKIIVMGGKNALVDDAGFKMLMQYEKHNLSNLQKAYDLNLRDVADLERGFLEKPKQVEMGKKLEKKVKYFNEEAERHLETLDGMNIITETTPENQAKRNREKRKTLVNGIQTLLNQNDALLRRLQEYQSVLNGDIPE,not failed
23,MKTAIVTDSASYLSAADVEKYHIHVVPITVIFGHQTYLENVEITSKEFYERMRTAPELPTTTQITLGQMQTTYDQLAKAGYDAVISIHLSSGITSFITNLESYLPNVTNIKVYPFDSLITAGGEAYMVLLAAKLVTEGYSPEQVIAQLKKIRETTGVYFVVDNLSHLVRTGRLSNASGLVGNLLRIKPVLTFQDGKIVAIQKERTMRRAYAAIKAKLAAEIAAVDYPLRVTIENGNNPKLQAEWTADLKASFPDLTIDEGEIGPVVGVHVGEGVMGLIWARDWEKWTI,failed
24,MIEVIILAIALSMDAFAVSIGLGATKQQSKVAPLGIIVALYFGLFQGIMPIIGYLGGKGVLSWAESYTPWIAFLLLFLIGVKMIFDSFSEGIEEDISKITHRVLLILAIATSIDAMAAGFSLTLLPVNPLIACLIIASVTFIFSWLGVLVGTKGGTWLENKAEFVGGITLIVMAIKIIITS,failed
25,MSLYTILVVDDSPMIVDVFVTMLERGGYRPITAFSGEECLEALNATPPDLVLLDIMMEPMDGWETLERIKTDPATRDIPVLMLTAKPLTPEEANEYGSYIEDYILKPTTHHQLYEAIEHVLARRHSIAADEGHHHHHH,not failed
